# Assay results published in patent US20040198705A1, “Modulation of steroid hormone uptake” (priority 2001, published 2004).
# Like-named read-outs stand apart in the source and are kept apart here.
# B1: SHBG: native sex hormone-binding globulin, plasma carrier of androgens and estrogens (protein, listed as Homo sapiens)
# chain: MESRGPLATSRLLLLLLLLLLRHTRQGWALRPVLPTQSAHDPPAVHLSNGPGQEPIAVMTFDLTKITKTSSSFEVRTWDPEGVIFYGDTNPKDDWFMLGLRDGRPEIQLHNHWAQLTVGAGPRLDDGRWHQVEVKMEGDSVLLEVDGEEVLRLRQVSGPLTSKRHPIMRIALGGLLFPASNLRLPLVPALDGCLRRDSWLDKQAEISASAPTSLRSCDVESNPGIFLPPGTQAEFNLRDIPQPHAEPWAFSLDLGLKQAAGSGHLLALGTPENPSWLSLHLQDQKVVLSSGSGPGLDLPLVLGLPLQLKLSMSRVVLSQGSKMKALALPPLGLAPLLNLWAKPQGRLFLGALPGEDSSTSFCLNGLWAQGQRLDVDQALNRSHEIWTHSCPQSPGNGTDASH
# B2: rSHBG: recombinant SHBG, 125I-labelled, tested for binding to SHBG receptors (protein, UniProt P04278 30-402, looked up)
# Sex hormone-binding globulin: LRPVLPTQSAHDPPAVHLSNGPGQEPIAVMTFDLTKITKTSSSFEVRTWDPEGVIFYGDTNPKDDWFMLGLRDGRPEIQLHNHWAQLTVGAGPRLDDGRWHQVEVKMEGDSVLLEVDGEEVLRLRQVSGPLTSKRHPIMRIALGGLLFPASNLRLPLVPALDGCLRRDSWLDKQAEISASAPTSLRSCDVESNPGIFLPPGTQAEFNLRDIPQPHAEPWAFSLDLGLKQAAGSGHLLALGTPENPSWLSLHLQDQKVVLSSGSGPGLDLPLVLGLPLQLKLSMSRVVLSQGSKMKALALPPLGLAPLLNLWAKPQGRLFLGALPGEDSSTSFCLNGLWAQGQRLDVDQALNRSHEIWTHSCPQSPGNGTDASH
# modifications: 125I-labelled
# Experiments:
# [1] = biological target: megalin expressed on Brown Norway yolk sac carcinoma cells (BN16 cells) (UniProt P98158); assay: cell-based or functional assay
# [2] = biological target: SHBG receptors in bovine epididymis membranes permeabilized in digitonin (bovine); assay: homologous competition, filter binding: 125I-rSHBG (400 pg) on 600 µg bovine epididymis membranes permeabilized in digitonin, with testosterone, 4 °C 18 h; unlabelled rSHBG varied, 125I-rSHBG as the displaced tracer
# [3] = biological target: SHBG receptors in bovine epididymis membranes permeabilized in digitonin (bovine); assay: radioligand filter binding to digitonin-permeabilized bovine epididymis membranes, competition with unlabelled rSHBG
# [4] = biological target: SHBG receptors in bovine endometrium membranes permeabilized in digitonin (bovine); assay: homologous competition, filter binding: 125I-rSHBG (400 pg) on 600 µg bovine endometrium membranes permeabilized in digitonin, with testosterone, 4 °C 18 h; unlabelled rSHBG varied, 125I-rSHBG as the displaced tracer
# purified native megalin = assay: surface plasmon resonance, native megalin immobilised (51.4 fmol/mm^2), 1 µM testosterone/SHBG complexes in flow, blank chip subtracted
# SHBG receptor = conditions: read-out: Kd of receptor binding, cited from earlier work
# [5] = system: SHBG receptors in bovine endometrium membranes; assay: 125I-rSHBG binding to permeabilized endometrium membranes; conditions: bovine endometrium membranes permeabilized in digitonin, competition with unlabelled rSHBG
# Procedure: (§1) FIG. 8. 125I-rSHBG (400 pg) was incubated with 600 μg of membrane preparations from bovine epididymis (A) or endometrium (B) in the presence of the indicated concentrations of unlabelled rSHBG. Values are given as a percentage of 125I-rSHBG bound in the absence of competitor (100%). The data represent the means of four individual experiments (±S.E.M.). Where no error bar is shown, the values are smaller than the actual symbol.
# (§2) To test whether recombinant SHBG (rSHBG) interacts with SHBG receptors and in particular whether rSHBG can act as an inhibitor of SHBG binding to an SHBG receptor, the binding of rSHBG to bovine epididymis and endometrium membranes permeabilized in digitonin was assayed. Binding was performed in the presence of testosterone, to achieve steroid hormone-steroid hormone binding protein complex formation.
# (§3) Briefly, purified recombinant SHBG was labelled with ^125I using the Iodo-Gen™ method [specific radioactivity (13-15)×10^3 c.p.m./ng]. 400 pg of ^125I—SHBG was mixed with 600 μg of purified membranes (either bovine epididymis or bovine endometrium membranes permeabilized in digitonin) in a total volume of 200 μl of reaction buffer [10 mM Hepes, pH 7.4, 2 mM CaCl2, 1 mM MgCl2, 1% (w/v) BSA, 1 µM ZnCl2, […] testosterone and […] digitonin]. […] The filters were washed extensively with reaction buffer and the amount of bound radioactivity was determined.
# [6] = system: SHBG receptors in bovine epididymis membranes; assay: 125I-rSHBG binding to permeabilized epididymis membranes
# Procedure: as §1, §2, §3
# UniProt P98158, sequence (P98158 26-4660 limits assumed): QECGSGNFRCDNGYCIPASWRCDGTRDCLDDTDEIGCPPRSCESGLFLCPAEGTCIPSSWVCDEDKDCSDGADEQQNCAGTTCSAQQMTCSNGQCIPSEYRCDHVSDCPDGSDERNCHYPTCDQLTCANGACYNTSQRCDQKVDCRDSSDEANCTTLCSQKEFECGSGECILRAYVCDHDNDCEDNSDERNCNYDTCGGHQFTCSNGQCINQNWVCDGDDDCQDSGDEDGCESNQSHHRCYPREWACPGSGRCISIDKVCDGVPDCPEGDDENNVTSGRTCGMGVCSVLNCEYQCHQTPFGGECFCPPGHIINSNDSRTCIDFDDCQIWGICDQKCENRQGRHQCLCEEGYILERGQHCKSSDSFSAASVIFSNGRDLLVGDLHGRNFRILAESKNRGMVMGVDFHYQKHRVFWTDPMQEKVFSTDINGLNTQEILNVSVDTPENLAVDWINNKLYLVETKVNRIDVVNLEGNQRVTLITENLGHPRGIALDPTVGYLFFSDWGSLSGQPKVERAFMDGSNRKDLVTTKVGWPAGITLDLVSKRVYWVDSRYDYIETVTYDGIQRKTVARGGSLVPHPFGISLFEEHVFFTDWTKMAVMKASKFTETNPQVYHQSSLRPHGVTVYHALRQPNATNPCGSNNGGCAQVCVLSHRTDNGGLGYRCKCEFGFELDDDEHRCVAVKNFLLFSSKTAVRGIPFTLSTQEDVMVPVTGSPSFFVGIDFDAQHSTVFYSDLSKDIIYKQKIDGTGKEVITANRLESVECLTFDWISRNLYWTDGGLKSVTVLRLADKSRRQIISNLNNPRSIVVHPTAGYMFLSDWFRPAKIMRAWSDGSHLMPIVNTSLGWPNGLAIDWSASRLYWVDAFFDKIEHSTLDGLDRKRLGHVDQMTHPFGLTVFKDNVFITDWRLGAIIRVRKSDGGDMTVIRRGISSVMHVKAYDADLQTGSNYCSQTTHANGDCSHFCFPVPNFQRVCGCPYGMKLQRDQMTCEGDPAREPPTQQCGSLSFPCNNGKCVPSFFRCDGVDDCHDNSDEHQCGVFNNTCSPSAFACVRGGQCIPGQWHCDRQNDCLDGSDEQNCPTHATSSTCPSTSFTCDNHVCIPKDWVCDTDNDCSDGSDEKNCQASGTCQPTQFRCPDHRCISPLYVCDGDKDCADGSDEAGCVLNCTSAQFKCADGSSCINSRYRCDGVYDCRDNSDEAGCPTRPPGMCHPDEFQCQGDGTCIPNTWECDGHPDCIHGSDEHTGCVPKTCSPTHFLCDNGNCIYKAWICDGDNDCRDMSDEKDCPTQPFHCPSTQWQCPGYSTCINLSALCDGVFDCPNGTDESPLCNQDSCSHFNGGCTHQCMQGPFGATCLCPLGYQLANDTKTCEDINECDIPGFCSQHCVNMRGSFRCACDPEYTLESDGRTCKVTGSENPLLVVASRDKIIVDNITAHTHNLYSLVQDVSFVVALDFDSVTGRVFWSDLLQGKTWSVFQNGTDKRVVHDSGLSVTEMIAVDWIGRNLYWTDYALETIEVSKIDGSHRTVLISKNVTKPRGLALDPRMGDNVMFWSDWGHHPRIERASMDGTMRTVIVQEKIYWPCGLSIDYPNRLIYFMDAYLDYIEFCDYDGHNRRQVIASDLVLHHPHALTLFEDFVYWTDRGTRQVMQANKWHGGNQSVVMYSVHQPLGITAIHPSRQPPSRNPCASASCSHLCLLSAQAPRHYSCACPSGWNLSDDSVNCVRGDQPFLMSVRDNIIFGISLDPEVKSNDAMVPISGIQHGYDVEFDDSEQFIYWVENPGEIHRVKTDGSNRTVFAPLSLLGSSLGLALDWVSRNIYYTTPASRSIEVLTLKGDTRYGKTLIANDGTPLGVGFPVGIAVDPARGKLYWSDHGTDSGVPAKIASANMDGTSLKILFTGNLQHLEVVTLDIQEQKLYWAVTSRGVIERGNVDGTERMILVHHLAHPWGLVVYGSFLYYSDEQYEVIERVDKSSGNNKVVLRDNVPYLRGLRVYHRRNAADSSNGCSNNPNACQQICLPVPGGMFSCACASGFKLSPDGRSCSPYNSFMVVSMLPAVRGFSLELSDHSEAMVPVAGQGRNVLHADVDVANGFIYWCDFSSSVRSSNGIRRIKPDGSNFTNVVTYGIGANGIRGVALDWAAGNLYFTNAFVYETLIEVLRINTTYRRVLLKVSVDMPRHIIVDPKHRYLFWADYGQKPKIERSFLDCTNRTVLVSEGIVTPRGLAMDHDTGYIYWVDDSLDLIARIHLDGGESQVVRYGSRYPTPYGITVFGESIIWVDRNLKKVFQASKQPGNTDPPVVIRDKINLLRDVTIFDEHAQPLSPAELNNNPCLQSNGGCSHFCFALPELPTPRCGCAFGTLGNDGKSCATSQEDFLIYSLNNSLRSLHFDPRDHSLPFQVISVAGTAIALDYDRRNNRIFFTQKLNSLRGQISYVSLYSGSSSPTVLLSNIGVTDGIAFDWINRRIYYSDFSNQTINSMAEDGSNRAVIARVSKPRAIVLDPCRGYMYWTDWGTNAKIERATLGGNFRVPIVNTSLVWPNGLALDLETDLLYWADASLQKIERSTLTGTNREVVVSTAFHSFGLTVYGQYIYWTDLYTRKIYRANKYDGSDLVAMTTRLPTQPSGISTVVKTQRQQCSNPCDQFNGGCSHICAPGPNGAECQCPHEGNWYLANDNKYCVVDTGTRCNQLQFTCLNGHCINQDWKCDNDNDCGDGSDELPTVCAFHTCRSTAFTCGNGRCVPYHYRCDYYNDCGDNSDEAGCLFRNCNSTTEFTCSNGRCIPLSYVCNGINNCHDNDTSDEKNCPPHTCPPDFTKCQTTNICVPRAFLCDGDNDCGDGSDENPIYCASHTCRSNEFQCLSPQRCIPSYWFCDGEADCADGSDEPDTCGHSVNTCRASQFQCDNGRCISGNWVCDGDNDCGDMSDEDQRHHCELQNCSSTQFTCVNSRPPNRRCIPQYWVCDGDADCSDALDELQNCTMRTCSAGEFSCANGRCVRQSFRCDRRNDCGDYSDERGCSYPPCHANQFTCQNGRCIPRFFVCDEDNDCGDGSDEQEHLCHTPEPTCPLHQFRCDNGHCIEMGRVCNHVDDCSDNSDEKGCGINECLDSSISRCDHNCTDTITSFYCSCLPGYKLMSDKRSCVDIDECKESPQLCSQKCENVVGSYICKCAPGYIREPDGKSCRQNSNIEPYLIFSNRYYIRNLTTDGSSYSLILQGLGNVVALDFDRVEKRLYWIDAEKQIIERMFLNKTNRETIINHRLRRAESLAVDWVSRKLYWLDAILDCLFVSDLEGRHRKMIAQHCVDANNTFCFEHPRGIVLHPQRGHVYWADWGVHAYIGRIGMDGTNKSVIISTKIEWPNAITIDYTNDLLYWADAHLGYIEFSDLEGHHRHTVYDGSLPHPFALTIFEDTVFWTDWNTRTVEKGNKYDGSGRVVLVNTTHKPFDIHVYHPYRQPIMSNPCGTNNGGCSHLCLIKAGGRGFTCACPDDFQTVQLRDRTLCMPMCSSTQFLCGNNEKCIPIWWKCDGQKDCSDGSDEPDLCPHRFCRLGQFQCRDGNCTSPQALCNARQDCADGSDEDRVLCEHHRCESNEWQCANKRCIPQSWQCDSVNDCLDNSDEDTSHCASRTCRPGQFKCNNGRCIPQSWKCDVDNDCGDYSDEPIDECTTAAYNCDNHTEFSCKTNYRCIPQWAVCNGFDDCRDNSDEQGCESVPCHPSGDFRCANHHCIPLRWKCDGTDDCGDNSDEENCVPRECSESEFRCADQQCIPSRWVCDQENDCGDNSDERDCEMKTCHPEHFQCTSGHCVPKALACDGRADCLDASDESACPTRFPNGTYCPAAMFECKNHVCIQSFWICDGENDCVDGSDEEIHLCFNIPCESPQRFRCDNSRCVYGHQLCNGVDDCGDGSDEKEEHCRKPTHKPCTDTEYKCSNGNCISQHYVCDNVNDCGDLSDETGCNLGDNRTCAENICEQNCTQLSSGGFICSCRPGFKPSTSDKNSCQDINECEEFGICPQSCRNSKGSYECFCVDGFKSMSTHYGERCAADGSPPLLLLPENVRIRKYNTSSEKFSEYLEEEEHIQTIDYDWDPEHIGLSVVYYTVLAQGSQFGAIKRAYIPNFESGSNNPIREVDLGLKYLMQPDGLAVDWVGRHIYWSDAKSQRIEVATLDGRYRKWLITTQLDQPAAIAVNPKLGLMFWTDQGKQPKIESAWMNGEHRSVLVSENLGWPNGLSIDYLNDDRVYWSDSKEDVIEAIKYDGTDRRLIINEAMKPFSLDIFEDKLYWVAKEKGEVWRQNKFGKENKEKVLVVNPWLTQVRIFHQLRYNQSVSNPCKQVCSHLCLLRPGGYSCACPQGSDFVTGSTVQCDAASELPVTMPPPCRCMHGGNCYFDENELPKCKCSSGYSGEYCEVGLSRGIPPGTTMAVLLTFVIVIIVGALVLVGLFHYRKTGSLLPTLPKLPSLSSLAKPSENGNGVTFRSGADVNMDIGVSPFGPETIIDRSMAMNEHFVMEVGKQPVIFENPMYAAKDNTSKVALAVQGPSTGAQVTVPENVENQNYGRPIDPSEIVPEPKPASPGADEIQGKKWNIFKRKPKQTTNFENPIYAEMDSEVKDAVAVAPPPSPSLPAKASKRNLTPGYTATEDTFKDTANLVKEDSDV
molecule,measurement,setting,value
complexes of [3H]-dihydrotestosterone (DHT) and sex hormone binding globulin (SHBG) (ligand),cell-associated [3H]-DHT after 4 hours at 37° C. in the presence of GST (control),[1],300000 cpm
fusion protein of GST and the receptor-associated protein (GST-RAP),cell-associated [3H]-DHT after 4 hours at 37° C. in the presence of GST-RAP,[1],70000 cpm
same,reduction in [3H]-DHT uptake in the presence of GST-RAP,[1],75%
"recombinant SHBG (rSHBG), 125I-labelled, in the presence of testosterone (from UniProt P04278 30-402) (ligand)",IC50 (read off the curve),[2],1000 nM
same,Kd,[3],500 nM
same,IC50 (read off the curve),[4],3000 nM
testosterone/SHBG complex (sex hormone binding globulin with bound testosterone) (from UniProt P04278 30-402) (ligand),Kd,purified native megalin,140 nM
B1,Kd,SHBG receptor; membrane suspensions,50 nM
same,Kd,SHBG receptor; solubilized membranes,500 nM
B2,binding of 125I-labelled rSHBG (in words),[5],saturable binding
same,binding of 125I-labelled rSHBG (in words),"[6]; bovine epididymis membranes permeabilized in digitonin, competition with unlabelled rSHBG",saturable binding
same,Kd,"[6]; permeabilized bovine epididymis membranes, in the presence of testosterone, read-out: affinity of binding (Kd)",500 nM
